Target: T1, mouse RNR (Mus musculus, UniProt P07742)
T1 construct: made in house; host or cells: E. coli BL21 (DE3)pLysS, pET3a
T1 sequence (P07742 1-792): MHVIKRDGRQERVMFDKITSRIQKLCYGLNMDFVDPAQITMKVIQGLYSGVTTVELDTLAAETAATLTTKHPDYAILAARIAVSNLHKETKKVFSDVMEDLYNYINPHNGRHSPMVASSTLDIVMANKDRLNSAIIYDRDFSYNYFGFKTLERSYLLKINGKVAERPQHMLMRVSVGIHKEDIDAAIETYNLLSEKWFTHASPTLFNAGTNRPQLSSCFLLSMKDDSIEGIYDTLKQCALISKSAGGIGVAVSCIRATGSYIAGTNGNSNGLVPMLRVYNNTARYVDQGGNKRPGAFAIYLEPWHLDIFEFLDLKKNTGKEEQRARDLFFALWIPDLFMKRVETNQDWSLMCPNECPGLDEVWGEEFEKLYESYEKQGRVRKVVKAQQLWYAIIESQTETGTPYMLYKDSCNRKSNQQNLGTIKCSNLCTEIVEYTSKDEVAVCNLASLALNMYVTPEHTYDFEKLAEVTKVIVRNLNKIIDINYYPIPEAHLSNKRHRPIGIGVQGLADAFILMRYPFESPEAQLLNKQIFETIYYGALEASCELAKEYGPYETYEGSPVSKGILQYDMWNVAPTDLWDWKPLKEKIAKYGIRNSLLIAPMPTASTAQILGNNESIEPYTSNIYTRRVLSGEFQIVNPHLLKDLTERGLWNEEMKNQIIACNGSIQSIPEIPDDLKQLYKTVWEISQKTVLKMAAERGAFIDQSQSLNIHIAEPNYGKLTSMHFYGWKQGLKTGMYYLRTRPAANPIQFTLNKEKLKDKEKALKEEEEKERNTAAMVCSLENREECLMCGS
Assay: in vitro mouse ribonucleotide reductase CDP assay
Assay type: biochemical
Settings: 300 fold molar excess of Sml1p (36 μg), 1 μg R1, increasing R2; dependent on R1 to R2 ratio
Method: FIG. 13 Inhibition of mouse RNR by the Sml1p. A series of tubes containing mouse RNR (1 μg of R1 protein and the indicated amounts of R2 protein) were incubated at 37° C. for 30 minutes as described in FIG. 9 in the absence (ã) or in the presence of 36 μg of Sml1p (o).
Inhibition of mouse ribonucleotide reductase by the Sml1protein. The effects of Sml1 protein on pure recombinant mouse ribonucleotide reductase were tested in a CDP assay in the presence of ATP as a positive effector (FIG. 13). In the figure, RNR activity in the presence of a fixed amount of R1 protein, and in the presence or absence of a 300 fold molar excess of Sml1p, are plotted against increasing concentrations of the R2 protein.

B1: Sml1p: 104 amino acid yeast protein encoded by YML058w (SML1) that binds Rnr1 and inhibits ribonucleotide reductase; recombinant, expressed in E. coli (protein)
chain: MQNSQDYFYAQNRCQQQQAPSTLRTVTMAEFRRVPLPPMAEVPMLSTQNSMGSSASASASSLEMWEKDLEERLNSIDHDMNNNKFGSGELKSMFNQGKVEEMDF
inhibition of mouse RNR compared with yeast RNR: less pronounced

Source: patent US7125658B2, “Small protein that interacts with a ribonucleotide reductase subunit and uses thereof” (The Trustees of Columbia University in the City of New York, priority 1998, dated 2006)
